The source of these data is PMC8885854, “Targeting macrophage TFEB-14-3-3 epsilon Interface by naringenin inhibits abdominal aortic aneurysm” (Cell Discovery, 2022).

Primed or numbered codes have the meaning given here. Where no end group is shown, it is not given here. [ ]: non-standard residue; d: D form. pS = N[C@@H](COP(=O)(O)O)C(=O)O; FITC′ = not defined here

The target of experiment [1] is T1, 14-3-3 epsilon (14-3-3ε, YWHAE) (Mus musculus, UniProt P62259).
T1 construct: full-length mouse 14-3-3ε, His-tagged, from Sf9 cells
T1 sequence (P62259 1-255): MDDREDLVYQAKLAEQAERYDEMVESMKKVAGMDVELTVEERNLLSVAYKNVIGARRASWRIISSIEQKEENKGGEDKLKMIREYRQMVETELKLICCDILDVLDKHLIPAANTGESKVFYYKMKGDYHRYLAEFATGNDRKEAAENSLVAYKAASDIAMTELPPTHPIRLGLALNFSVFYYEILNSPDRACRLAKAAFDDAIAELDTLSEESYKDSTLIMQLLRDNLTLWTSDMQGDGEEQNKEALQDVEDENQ
The experiment in a line: ITC with purified protein; supported by CETSA/ITDRF-CETSA in macrophage lysates and FP displacement of p-TFEB peptide (IC50 […]). Format: binding.

Experiment [2] addresses T2, His-14-3-3ε (full-length mouse 14-3-3ε, purified) (mouse, UniProt P62259 1-255).
T2 construct: 14-3-3 epsilon, mouse, full length; also called 14-3-3 epsilon; 14-3-3ɛ; source: Sf9 (Bac-to-Bac baculovirus), purified (Ni-NTA), at least 70% pure
T2 sequence (looked up): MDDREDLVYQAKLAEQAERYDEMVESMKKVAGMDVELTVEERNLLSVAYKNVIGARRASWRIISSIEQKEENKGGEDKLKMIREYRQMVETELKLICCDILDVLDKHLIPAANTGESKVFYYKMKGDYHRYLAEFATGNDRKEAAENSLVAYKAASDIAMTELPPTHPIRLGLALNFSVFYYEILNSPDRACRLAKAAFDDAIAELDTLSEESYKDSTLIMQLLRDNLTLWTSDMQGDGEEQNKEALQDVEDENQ
Kind of experiment: fluorescence polarisation; direct binding: His-14-3-3ε serially diluted (1-4000 nM) against FITC-labelled peptide (10 nM solution); 25 mM HEPES pH 7.5, 100 mM NaCl, 1 mg/ml BSA, 0.05% CHAPS; 60 min at 25 °C. The note with it: both partners purified.

Broadly, the Kd is the equilibrium constant for the complex coming apart. A higher Kd goes with a looser complex. In experiment [1], `O=C1C[C@@H](c2ccc(O)cc2)Oc2cc(O)cc(O)c21` [NGN, naringenin] returned a Kd of 30600 ± 7990 nM.

B1: control phosphor-peptide (p-control peptide, MARSHpSYPAKKK) with C-terminal FITC (peptide)
peptide: MARSH[pS]YPAKKK-{FITC′}
notes: control phosphopeptide with the conventional 14-3-3 motif RSXpSXP; source: synthetic peptide
B1: in experiment [2], the Kd amounted to 2.4 nM.

B2: phosphorylated TFEB peptide (p-TFEB peptide, LVGVTSSpSCPADLTQ) with C-terminal FITC (peptide)
peptide: LVGVTSS[pS]CPADLTQ-{FITC′}
notes: also called p-TFEB-FITC; source: synthetic peptide
In experiment [2], B2 displayed a Kd of 9.68 nM.
